Protein production data for 24 sequences are collected here from a protein production outcome set (Wang et al. 2014).
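Further: failed if final PepcDB status was selected cloned or expressed and not failed if soluble or beyond.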

A short description of this data set: label from the status in PepcDB records.
As for “MGHHHHHHSHMAAPEAEVLSSAAVPDLEWYEKSEETHASQIELLETSSTQEPLNASEAFCPRDCMVPVVFPGPVSQEGCCQFTCELLKHIMYQRQQLPLPYEQLKHFYRKPSPQAEEMLKKKPRATTEVSSRKCQQALAELESVLSHLEDFFARTLVPRVLILLGGNALSPKEFYELDLSLLAPYSVDQSLSTAACLRRLFRAIFMADAFSELQAPPLMGTVVMAQGHRNCGEDWFRPKLNYRVPSRGHKLTVTLSCGRPSIRTTAWEDYIWFQAPVTFKGFRE”, the protein production result was “failed”.

“MGHHHHHHSHMASPSKAVIVPGNGGGDVTTHGWYGWVKKELEKIPGFQCLAKNMPDPITARESIWLPFMETELHCDEKTIIIGHSSGAIAAMRYAETHRVYAIVLVSAYTSDLGDENERASGYFTRPWQWEKIKANCPYIVQFGSTDDPFLPWKEQQEVADRLETKLHKFTDCGHFQNTEFHELITVVKSLLKVPA”: the protein production result is on record as “failed”.

Regarding “MGHHHHHHSHMASRVRVTILFATETGKSEALAWDLGALFSCAFNPKVVCMDKYRLSCLEEERLLLVVTSTFGNGDCPGNGEKLKKSLFMLKELNNKFRYAVFGLGSSMYPRFCAFAHDIDQKLSHLGASQLTPMGEGDELSGQEDAFRSWAVQTFKAACETF”, the protein production entry is “failed”.

As to “MGHHHHHHSHMDDIFTQCREGNAVAVRLWLDNTENDLNQGDDHGFSPLHWACREGRSAVVEMLIMRGARINVMNRGDDTPLHLAASHGHRDIVQKLLQYKADINAVNEHGNVPLHYACFWGQDQVAEDLVANGALVSICNKYGEMPVDKAKAPLRELLRERAEK”, the protein production entry was “not failed”.

As to “MGHHHHHHSHMGTKRPAMLDNEADGNKTMIELSDNENPWTIFLETVDPELAASGATLPKFDKDHDVMLFLKMYDPKTR”, the protein production entry is recorded as “failed”.

As for “MGHHHHHHSHMKALLSIEMDMQVPFHDVDSMGITWHGNYLRYFEVARCKLLDELGYNYRQMRASNYAWPIIDVQIKYVKPSTFEQHITVRAELVEWENRLKINYQIRDTATGERITKGYTIQAAVDMTSQEMCFVTPEVFRSKIAPLLAKVDNE”, the protein production entry was “not failed”.

For “MGHHHHHHSHMNLERLRKRVRQYLDQQQYQSALFWADKVASLSREEPQDIYWLAQCLYLTAQYHRAAHALRSRKLDKLYEACRYLAARCHYAAKEHQQALDVLDMEEPINKRLFEKYLKDESGFKDPSSDW”, the protein production result was “failed”.

“MGHHHHHHSHMPVTEKDLAEDAPWKKIQQNTFTRWCNEHLKCVNKRIGNLQTDLSDGLRLIALLEVLSQKRMYRKYHQRPTFRQMQLENVSVALEFLDRESIKLVSIDSKAIVDGNLKLILGLVWTLILHYSISMPVWEDEGDDDAKKQTPKQRLLGWIQNKIPYLPITNFNQNWQDGKALGALVDSCAPGLCPDWESWDPQKPVDNAREAMQQADDWLGVPQVITPEEIIHPDVDEHSVMTYLSQFPKAKLKPGAPLKPKL”: the protein production entry is listed as “not failed”.

In the case of “MGHHHHHHSHMRPELEDSTLRYLQDLLAWVEENQHRVDGAEWGVDLPSVEAQLGSHRGLHQSIEEFRAKIERARSDEGQLSPATRGAY”, the protein production result is “failed”.

“MGHHHHHHSHMRTISFFNNKGGVGKTTLSTNVAHYFALQGKRVLYVDCDPQCNATQLMLTEEQTESIYLDGLNDEVAERNSLAKTVYAIFVPLREGESQIAAEITPMRSERFGVDVLPGHPALSQIEDLMSDSWQSALGRQTGPFRRIHWAGQLAHAMERDDRYDVIFFDVGPSLGPFNRTVLLGCDAFVTPTATDLFSFHAFGNLARWFDAWVTQYAEIHEGNMAEWKKYS”: the protein production entry is on record as “failed”.

Turning to “MGHHHHHHSHMTKREYDQCRIQVRLPDGTSLTQTFRAREQLAAVRLYVELHRGEELGGGQDPVQLLSGFPRRAFSEADMERPLQELGLVPSAVLIVAKKCPS”, the protein production entry is “failed”.

In the case of “MGHHHHHHSHMTLEEFSAGEQKTERMDKVGDALEEVLSKALSQRTITVGVYEAAKLLNVDPDNVVLCLLAADEDDDRDVALQIHFTLIQAFCCENDINILRVSNPGRLAELLLLETDAGPAASEGAEQPPDLHCVLVTNPHSSQWKDPALSQLICFCRESRYMDQWVPVINLPER”, the protein production result is listed as “failed”.

Regarding “MGHHHHHHSHMTNTVDSLFDTGLERYKAGEPAADLIPVFKEVCDRAPKASAAWICLAWLYLLEDKPNLALKAAQKAVKINPQDPQARVNLAVAMLETGQKGLRQHIDITQQLMLVNPDWRDEIQNSIADGLSRKPDWQSLAKVKGWLFNE”, the protein production result is reported as “not failed”.

On to “MGHHHHHHSHMYRYFTPKIVKRALNIWPPFWGAGISIENISSDFQEVSVILKDRFWNRNANRTQYGGSIFSMTDPVFSLMLMGILRDEYYVWDKQSEIDFISPGTTDLHARFVISDEQLAEIKQETKEGEKHFPQFEVYIYDKKGKVVARVNRTLYVRKKPEFR”, for which the protein production result is listed as “not failed”.

With “MGHHHHHHSHPPRDLDSKACISIGNQNFEVKADDLEPIMELGRGAYGVVEKMRHVPSGQIMAVKRIRATVNSQEQKRLLMDLDISMRTVDCPFTVTFYGALFREGDVWICMELMDTSLDKFYKQVIDKGQTIPEDILGKIAVSIVKALEHLHSKLSVIHRDVKPSNVLINALGQVKMCDFGISGYLVDSVAKTIDAGCKPYMAPERINPELNQKGYSVKSDIWSLGITMIELAILRFPYDSWGTPFQQLKQVVEEPSPQLPADKFSAEFVDFTSQCLKKNSKERPTYPELMQHPFFTLHESKGTDVASFVKLILGD”, the protein production result was “not failed”.

With “MGHHHHHHSHSIKPSTNLVFAKVLEKTRHPNANHLNLVKVKANQKVYEIVCGANNFSVHNWVVLAKLNAELANGLKITPRELRGYVSNGMLCAYSEINPQATSFLTSTDLDGILVLDDNYDHYKTPNQIFNLDDVILDLSIPSNRNDLNGYFWIAKELCAYFDFEYVVDATINHRPHKEIIDVRI”, the protein production entry is “failed”.

“MGHHHHHHSHSVGMDTFIHRIDSTEVIYQPRRKRAKLIGKYLMGDLLGEGSYGKVKEVLDSETLCRRAVKILKKKKLRRIPNGEANVKKEIQLLRRLRHKNVIQLVDVLYNEEKQKMYMVMEYCVCGMQEMLDSVPEKRFPVCQAHGYFCQLIDGLEYLHSQGIVHKDIKPG”: the protein production entry is recorded as “failed”.

“MGHIKKGELTQEEKELLEVIGKGTVQEAGRLLSSKNVHVNCLDENGMTPLMHAAYKGKLEMCKLLLRHGADASCHQHEHGYTALMFAALSGNKDITWVMLEAGAETDVVNSVGRTAAQMAAFVGQHDCVAIINNFFPRERLDYYTKPQGLDKEPKQPPKLAGPLHKIITTTNLHPVKIVMLVSENPLLADAAALGKCYRVMDLICEKCMKQRDMNEVLAMKMHYISCIFQKCITFLKEGENKLDTLIRSLLKGRASDGFPVYQEKIIRESIRKFPYCEATLLQQLVRSIAPVEIGSDPTAFSVLTQAITGQVGFVDVEFCTTCGEKGASKRCSVCKMVIYCDQTCQKTHWFAHKKMCKSLKDVYEKQQIEAAKHKRQEEKNGNPNVSSNHVNEDQPEAEEGITQENSIPSDSVEGEKEAANDTGLASAQDAPTGPQLSEE”: the protein production result is listed as “failed”.

As to “MGHKQSVDSRGKGRKVPGSSSMVQKHRVESSGGAIISGPSLFDNLPEDCISNIISFTSPRDACVAASVSKTFESAVNSDSVWDKFLPSDYSSLVPPSRVFSSKKELYFAICDNPVLVEDGGKSFWLEKENGKKCFMLSPKKSMWITWVSTPQYWRWISIPEARFEEVPELLNVCWFEVRGGMNTKELSPGTRYSAYIVFKTKNGCPNLGDVPVEATVGLVGQESSQRHIYFVGPSDQRRDRETRDVTRPTKRKDGWMEAELGQFFNESGCDVVDTSILEIKTPYWKRGLIIQGIEFRPTKSLFYI”, the protein production entry is “not failed”.

As to “MGHPPQLPGGRCPMSQTMDFDTLRRAMADNYEQPEGPARNARAEQLLTEAEKLNIPLAVIEALGHQLKVYNYSSEKDKMFVPFARLLRMWDERPEDFDEYEIHSLHWVFKWMSAGMLGQPHIPLASIEKWLGEMEHRYRLAGHSERAVRSAEFSVANHIGDLARAERAYAAWLAADRDSMADCHACELHDQGWWQARKGADADALEVWRPVVEGEYVCAHEPHAILASSLVPLLRLGRLDEARAHHLRGFRLIRPMESMRGAYADHVEFCALSGNEARALELLAERPAYFTDSGEPRSKLDFMAVVALLMDRLVELGLGEQTVPGPAGRVWSARELAAHARAEALALAARFDERNGTAHVSERARERMDRRPLVDRLPLGVRSTRPAPTAPRPPAAPDSAPAPAVERDLRDVLAEARGRSDALRPDAMDAWAAVARAAGDHELDARDRAEIADHEAMSRGPEGAPLFERAAELYAEAGDPGEALAARARGAYVRALTGHSDDALRTINDLHRQVRALFAKDGTGVRQTAAVLVGRARILVHRVHETEGAGTTVAAAEEAVRELLEFAEPHIAQVRLASRAAEARAMLGELAALTGDAMTAAELLAQAAEGFLAAGLPWFAVEYEARLAGIARELGDAVEAERAARSALEHGVEYLEPAGQAQLHLQLAEVLGTTGQFGPAAEHALEAAHWADEAGEGPTFGAWARHQLGGFLLQQGRWAEAAEVLESALPDLTAETHGDGALVQTQWWLGDCHTELGEHREAAERWLRAAEIARHWPEQRDHAMLAHLAAEALGHAGLPAEADRAYTRAGDLWRDLGNVHGLARALRARAWLAAREEDELDPARELMAQAVRECEAALEGATEGEDGARERLVAELGHTHRQFGDLVARSVQDGDRGADFQGAFEEALGHVTRAVAVFAPLGASALDLRTGAELAAGWLEADLHRPAEATARARAVLAAYANRQEADDETARARCAEADRMLELLGTRTGQ”, the protein production entry is “failed”.

For “MGHVLIEMMGIKKGDFVLDVGCGTGRQALNVAGIIGPAGKLTGIDPSSYRIELARKKFEGDSSGNVRFLVRQAENLQDIPDNSINHAYFCSSFHWVDDKKTALNEIFRVLRPGGKVGMTTLDRNSPNTMKALIDPILAKFGIERRHEWHRGMKKVTAPELHDLLSGAGFTSISIEPRAVPRKYNSPEEFLQHPEEKDSSRGILRDISNETLEKLRQEITEEFRKAQTPEDIGFGNITLFAIATKAQEGLEHHHHHH”, the protein production entry is “not failed”.

With “MGIGFKGRKTLLRELVKYMVTLCISLVVLALLYIFINTIAMNTGFSHPANYNEREAEKLAPKLETIDKVTADMIPDTMSYAILNKETKQKTAGTIKEKDLQLVKKKIEKKPYVNYKQKGYLVIERNNEYCVLQYSLRADFSSPLLRKYLPNYELTSICILIILLIIVISIITTYFANRLRKHFETLNVITRYIKEQNLQFTPEFTHIKEFDDVIDSLIEMRDALQSSLEALWRLEKNKKEQIGALAHEIKIPITIIKGNAELLSLSMQNEEQAEYTKYILGAGNQIEQYIYQLIHLSKTEDALTIHLEKASVDELTETLVKDISAYKGNKNINISFKKENLMKEAKIDWQLLHRALLNILTNAVDYTPEGGTVSVHAESILRYFIFL”, the protein production result is recorded as “failed”.

As for “MGIQETDPLTQLSLPPGFRFYPTDEELMVQYLCRKAAGYDFSLQLIAEIDLYKFDPWVLPNKALFGEKEWYFFSPRDRKYPNGSRPNRVAGSGYWKATGTDKIISTEGQRVGIKKALVFYIGKAPKGTKTNWIMHEYRLIEPSRRNGSTKLDDWVLCRIYKKQSSAQKQVYDNGIANAREFSNNGTSSTTSSSSHFEDVLDSFHQEIDNRNFQFSNPNRISSLRPDLTEQKTGFHGLADTSNFDWASFAGNVEHNNSVPELGMSHVVPNLEYNCGYLKTEEEVESSHGFNNSGELAQKGYGVDSFGYSGQVGGFGFM”, the protein production result is listed as “failed”.

For the sequence “MGIYQWRDKKKPSGGKRRYYYKVKRKYAAGRPPTYTTLSAAEEEERKPVRARGGSYKIKAKKVAFAVVSNPKTGEARKARILRIVETPAHREYARRGIIVKGAVIDTTLGRAVVTSRPGQEGVVNAVLLEEQGQKQLEHHHHHH”, the protein production result is reported as “not failed”.
